Where a chain is given by its changes, count along the chain named.
Tests used:
xCas12i-D892R (v4.3) = target: T1, xCas12i-D892R (v4.3) (D892R); test: cell_activity; HEK293T EGFP reporter; details: tags: NLS
T1 chain: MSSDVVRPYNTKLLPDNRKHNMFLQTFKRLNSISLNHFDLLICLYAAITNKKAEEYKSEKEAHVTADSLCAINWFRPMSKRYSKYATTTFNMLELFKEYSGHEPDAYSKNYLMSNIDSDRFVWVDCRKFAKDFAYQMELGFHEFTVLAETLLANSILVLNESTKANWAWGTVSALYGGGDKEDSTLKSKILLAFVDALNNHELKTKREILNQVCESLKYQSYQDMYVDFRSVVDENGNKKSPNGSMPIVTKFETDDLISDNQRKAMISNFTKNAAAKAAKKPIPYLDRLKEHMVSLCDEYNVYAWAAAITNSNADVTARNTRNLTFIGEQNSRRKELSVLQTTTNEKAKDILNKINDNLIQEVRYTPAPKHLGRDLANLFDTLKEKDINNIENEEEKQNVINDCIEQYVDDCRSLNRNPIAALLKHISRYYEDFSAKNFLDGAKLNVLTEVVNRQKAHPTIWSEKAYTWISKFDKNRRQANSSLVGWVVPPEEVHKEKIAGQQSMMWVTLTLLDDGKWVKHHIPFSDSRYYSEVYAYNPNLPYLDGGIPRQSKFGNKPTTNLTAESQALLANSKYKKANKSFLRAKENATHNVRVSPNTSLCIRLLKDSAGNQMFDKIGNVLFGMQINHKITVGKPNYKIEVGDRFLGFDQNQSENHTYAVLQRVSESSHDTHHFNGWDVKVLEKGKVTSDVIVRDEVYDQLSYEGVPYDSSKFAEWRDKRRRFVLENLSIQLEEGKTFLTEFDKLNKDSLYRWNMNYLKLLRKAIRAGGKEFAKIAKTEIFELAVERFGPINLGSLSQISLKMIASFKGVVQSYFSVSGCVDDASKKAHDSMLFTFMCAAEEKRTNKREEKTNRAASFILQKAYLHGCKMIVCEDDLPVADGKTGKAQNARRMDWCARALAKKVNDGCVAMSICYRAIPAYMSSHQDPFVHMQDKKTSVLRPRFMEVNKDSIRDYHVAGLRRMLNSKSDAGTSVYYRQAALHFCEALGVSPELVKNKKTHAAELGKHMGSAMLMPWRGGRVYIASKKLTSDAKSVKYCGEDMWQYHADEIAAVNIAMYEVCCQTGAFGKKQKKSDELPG
Text: (§1) To vary xCas12i's dsDNA cleavage activity and/or expand its scope of PAM site recognition, the applicant engineered xCas12i protein via mutagenesis and screened for mutants with various dsDNA cleavage activity and broader PAM using a dual plasmid fluorescent reporter system similar to the dual plasmid fluorescent reporter system in Example 1, except that the EGxxxxFP-targeting guide RNA (SEQ ID NO: 51; “crON/crRNA On-target”) coding sequence operably linked to U6 promoter was not located on the expression plasmid together with the xCas12i (or its mutant) coding sequence (SEQ ID NO: 31) but located on the reporter plasmid together with the BFP-P2A-EGxxxxFP coding sequence (SEQ ID NO: 41) (referring to “On-Target Reporter” in FIG. 1B). […] The applicant then individually transfected the expression plasmid and the reporter plasmid into HEK293T cells and analyzed them by FACS (FIG. 1B). […]

xCas12i-E875R = target: T2, xCas12i-E875R (E875R); test: cell_activity; RuvC catalytic residue; cleavage readout; details: tags: NLS
T2 chain: T1 chain with E875R, R892D
Text: as §1

B1: crEGFP DR-T1 ; EGxxxxFP reporter target (ssRNA ; dsDNA)
RNA: AUGACUCAGAAAUGUGUCCCCAGUUGACACCCAUUACAGUAGGAGCAUAC
DNA 1: GGATCCGTGTCTTTCCCATTACAGTAGGAGCATACGGGAGACAAGCTTTG
DNA 2: CAAAGCTTGTCTCCCGTATGCTCCTACTGTAATGGGAAAGACACGGATCC
B1 was tested, and the binding signal (xCas12i-D892R (v4.3)) was 1.42 relative to WT and the binding signal (xCas12i-E875R) was 0.1 relative to WT.

Source: patent US20250283063, “NOVEL CRISPR-CAS12I SYSTEMS AND USES THEREOF” (HUIDAGENE THERAPEUTICS (SINGAPORE) PTE. LTD., published 2025)
